Measurements reported in paper PMC8882607 (Journal of Molecular Biology, 2022).

Key:
Test in all cases: ITC
[1] = biological target: G3BP1_(NTF2) F124A mutant (human, UniProt Q13283 1-139, F124A)
G3BP1_(NTF2) F33A mutant = G3BP1_(NTF2) F33A mutant (human, UniProt Q13283 1-139, F33A)
G3BP1_(NTF2) Q18A mutant = G3BP1_(NTF2) Q18A mutant (human, UniProt Q13283 1-139, Q18A)
G3BP1_(NTF2) V11A mutant = G3BP1_(NTF2) V11A mutant (human, UniProt Q13283 1-139, V11A)
[2] = biological target: NTF2-like domain of human G3BP1 (residues 1-139) (human, UniProt Q13283 1-139)
Chain of NTF2-like domain of human G3BP1 (residues 1-139) (Q13283 1-139): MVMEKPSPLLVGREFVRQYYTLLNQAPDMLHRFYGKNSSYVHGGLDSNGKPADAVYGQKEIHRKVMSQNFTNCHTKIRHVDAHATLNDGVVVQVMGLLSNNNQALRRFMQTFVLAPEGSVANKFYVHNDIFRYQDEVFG

Chain of G3BP1_(NTF2) V11A mutant (Q13283 1-139 V11A): as the sequence (Q13283 1-139) above, with V11A counted along it
Chain of G3BP1_(NTF2) F33A mutant (Q13283 1-139 F33A): as the sequence (Q13283 1-139) above, with F33A counted along it
Chain of G3BP1_(NTF2) F124A mutant (Q13283 1-139 F124A): as the sequence (Q13283 1-139) above, with F124A counted along it
Chain of G3BP1_(NTF2) Q18A mutant (Q13283 1-139 Q18A): as the sequence (Q13283 1-139) above, with Q18A counted along it

B1: SARS-CoV-2 N_(1–25) peptide (residues 1-25 of the N protein) (peptide)
peptide: MSDNGPQNQRNAPRITFGGPSDSTG
With B1 the “fold reduction of binding against wild-type G3BP1_(NTF2)” value [1] was about 20 fold, the dH (G3BP1_(NTF2) F33A mutant) was -89.1 kJ/mol and the dH (G3BP1_(NTF2) Q18A mutant) was -63.2 kJ/mol. The “fold reduction of binding against wild-type G3BP1_(NTF2)” value (G3BP1_(NTF2) V11A mutant) was about 10 fold.

B2: SARS-CoV-2 N_(1–25) peptide, T16A mutant (peptide)
peptide: MSDNGPQNQRNAPRIAFGGPSDSTG
With B2 the “fold reduction of binding against wild-type N_(1–25)” value [2] was about 3 fold.

B3: SARS-CoV-2 N_(1–25) peptide, I15A mutant (peptide)
peptide: MSDNGPQNQRNAPRATFGGPSDSTG
With B3 the “fold reduction of binding against wild-type N_(1–25)” value [2] was over 10 fold.

B4: SARS-CoV-2 N_(1–25) peptide, G18T mutant (peptide)
peptide: MSDNGPQNQRNAPRITFTGPSDSTG
With B4 the “fold reduction of binding affinity against wild-type N_(1–25)” value [2] was about 6 fold.
